Source: article PMC11640315

Target: Retinoid X receptor of turbot, HA-tagged (pcDNA3.1-RXR-HA) (turbot (Scophthalmus maximus))

activity of the SHP promoter, dual-luciferase reporter assay in HEK293 cells; co-transfection of FXR and RXR plasmids against the FXR plasmid: 3 times
Substance: Farnesoid X receptor of turbot, Flag-tagged (pcDNA3.1-FXR-Flag)
